From US20110143394, “Methods and Means for Metabolic Engineering and Improved Product Formation by Micro-Organisms” (Universiteit Leiden, published 2011)

T1: DasR (SCO5231) (Streptomyces coelicolor, UniProt Q9K492 SEQ:1-254)
T1 sequence: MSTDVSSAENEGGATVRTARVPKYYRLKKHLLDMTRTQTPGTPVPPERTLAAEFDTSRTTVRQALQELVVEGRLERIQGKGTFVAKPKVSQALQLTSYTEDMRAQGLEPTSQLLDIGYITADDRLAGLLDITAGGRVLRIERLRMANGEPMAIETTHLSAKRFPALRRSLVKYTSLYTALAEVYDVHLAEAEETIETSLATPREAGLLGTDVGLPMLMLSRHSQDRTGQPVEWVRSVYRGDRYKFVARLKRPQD

B1: crp cis-element oligo (dsDNA)
DNA 1: TGCGGCATCCTTGTGACAGATCACACTGTTTGGACT
DNA 2: AGTCCAAACAGTGTGATCTGTCACAAGGATGCCGCA
B2: crr dre oligo (dsDNA)
DNA 1: CCGTGAGGAGTGTGGTCTAGACCTCTAATCGGAACA
DNA 2: TGTTCCGATTAGAGGTCTAGACCACACTCCTCACGG

Legend:
DasR (SCO5231) [1] = biological target: T1, DasR (SCO5231); assay: EMSA; negative control; details: tags: His6; chain copies: 2; label: fluorescent
Description: (§1) Electromobility gel shift assay (EMSA). EMSAs were performed with fluorescent probes (10 nM) with an ALF express sequencer (Filee et al., 2001). Purified DasR (3 μM) and 1000-fold excess of non-specific DNA were used in the reaction mixture. Predicted cis-acting elements were taken from the promoter regions of actII-ORF4 (SCO5085; 5′-[…]-3′ (SEQ ID NO:530)), and redZ (SCO5881; 5′-[…]-3′ (SEQ ID NO:531)). Known cis-acting elements upstream of crr (SCO1390; […]-3′ (SEQ ID NO:532)), and crp (SCO3571; 5′-[…]-3′ (SEQ ID NO:533)) were used as positive and negative controls, respectively. The 16 nt dre sites are underlined.

DasR (SCO5231) [2] = biological target: T1, DasR (SCO5231); assay: EMSA; no free probe left; 3 uM DasR, 10 nM probe, 1000-fold non-specific DNA; complex prevented by glucosamine-6-P (data not shown); details: tags: His6; chain copies: 2; label: fluorescent
Description: as §1

Binder	binding result (DasR (SCO5231) [1])	binding result (DasR (SCO5231) [2])
B1	no binding	
B2		binds
